Data taken from PMC3542614 (Cell Death & Disease, 2012).

Key:
[1] = target: Bcl-BΔC27 (C-terminally truncated Bcl-B, residues A2–A167, cysteines 20 and 128 mutated to serine) (human); experiment: SPR
Bcl-B:Bim complex = target: T1, Bcl-B:Bim complex (Homo sapiens, UniProt Q9HD36, C138S/C30S); experiment: SPR competition assay: displacement of Bim-BH3 from the Bcl-B:6His-Bim complex; format: binding; details: BH3 peptides between 1.25 and 40 μM
T1 sequence (Q9HD36 12-177 C30S/C138S): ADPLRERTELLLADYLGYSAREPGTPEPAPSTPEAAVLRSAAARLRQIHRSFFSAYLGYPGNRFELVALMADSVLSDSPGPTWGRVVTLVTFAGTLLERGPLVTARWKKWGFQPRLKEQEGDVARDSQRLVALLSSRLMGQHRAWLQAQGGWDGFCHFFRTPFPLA

Bcl-B = details: cited from earlier work

IC50 [1] [µM] | Displacement of Bim from the Bcl-B:Bim complex (Bcl-B:Bim complex) | Compound | Binding to Bcl-B (Bcl-B)
113 |  | Bik-BH3 peptide | 
 | failed to displace Bim | CN(C)CC[C@H](CSc1ccccc1)Nc1ccc(S(=O)(=O)NC(=O)c2ccc(N3CCN(Cc4ccccc4-c4ccc(Cl)cc4)CC3)cc2)cc1[N+](=O)[O-] [ABT-737] | does not bind Bcl-B
6.6 |  | Bax-BH3 peptide | 
